According to the supplement of paper PMC10724198:
± gives the standard deviation of the averaged measurements.

Test system: Saccharomyces cerevisiae
Assay: protein stability index of tFT-peptide fusion (C-terminal peptide) (PSI (0-1 scale)); higher = more stable (slower turnover)
Settings: temperature: 30 C
Method: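 MPS profiling in S. cerevisiae of the yeast C-terminome library: the last 12 aa of each annotated ORF are fused to the C-terminus of a sfGFP-mCherry timer, after a GGGS linker. Cells are FACS-sorted into 8 mCherry/sfGFP bins and deep-sequenced. PSI runs from 0 (unstable) to 1 (stable); wild type and das1Δ backgrounds, two technical replicates each.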

[1] = genetic background: das1 deletion

Sequence | protein stability index [1] | protein stability index (genetic background: wild type)
KLDEAEMQGLIM [YMR158C-A C-terminal 12 aa] | 0.69 ± 0.012 | 0.724 ± 0.041
KQSVQQQKTGNY [YHL009W-A C-terminal 12 aa] | 0.699 ± 0.018 | 0.663 ± 0.00095
NSLTQKYGTNNV [AAD15 C-terminal 12 aa] | 0.698 ± 0.016 | 0.697 ± 0.029
HYSPFYQLPLIF [YGR240C-A C-terminal 12 aa] | 0.683 ± 0.022 | 0.575 ± 0.0067
DSHEDMKRRRLE [ROX3 C-terminal 12 aa] | 0.6865 ± 0.0045 | 0.695 ± 0.0078
KKLEGTIEYQKL [RPT4 C-terminal 12 aa] | 0.708 ± 0.027 | 0.702 ± 0.012
KWGMEDSPPPYH [MDM34 C-terminal 12 aa] | 0.734 ± 0.028 | 0.6942 ± 0.0043
SNRTLSNETDAL [ACE2 C-terminal 12 aa] | 0.7072 ± 0.0038 | 0.701 ± 0.016
PSPYYVSEVPVS [Q0010 C-terminal 12 aa] | 0.6371 ± 0.0047 | 0.6238 ± 0.0025
VFEVFSRMDMLL [VPS74 C-terminal 12 aa] | 0.7149 ± 0.0058 | 0.773 ± 0.027
GFASLIKDFKKK [NET1 C-terminal 12 aa] | 0.672 ± 0.018 | 0.685 ± 0.043
ILRNASQIVSSV [VPS1 C-terminal 12 aa] | 0.7029 ± 0.0038 | 0.6942 ± 0.0029
PRLKAKKKVTKP [TFB4 C-terminal 12 aa] | 0.6873 ± 0.003 | 0.67 ± 0.012
VDSEGQIRYAKE [YCR087C-A C-terminal 12 aa] | 0.673 ± 0.028 | 0.6705 ± 0.0015
KNLWHHKINNLN [RAM2 C-terminal 12 aa] | 0.699 ± 0.017 | 0.166 ± 0.021
EFHQDFFSKYRN [ALT2 C-terminal 12 aa] | 0.707 ± 0.011 | 0.729 ± 0.027
PQFKYRADFLII [APE3 C-terminal 12 aa] | 0.664 ± 0.011 | 0.676 ± 0.037
APPKLNNSSESE [STE23 C-terminal 12 aa] | 0.681 ± 0.0074 | 0.674 ± 0.0091
LESTHDKAIAGK [MNN2 C-terminal 12 aa] | 0.6974 ± 0.0069 | 0.684 ± 0.021
PFLEKLTLSGLL [CDC45 C-terminal 12 aa] | 0.714 ± 0.0059 | 0.694 ± 0.0088
VFGGCATTWIVL [ATS1 C-terminal 12 aa] | 0.6971 ± 0.0038 | 0.692 ± 0.0096

Sequence | protein stability index [1] | protein stability index (genetic background: wild type)
ESFVECFESFIE [PBI1 C-terminal 12 aa] | 0.714 ± 0.03 | 0.682 ± 0.033
VNHSFEFNDVLQ [IFH1 C-terminal 12 aa] | 0.686 ± 0.014 | 0.738 ± 0.025
RKSKRVLPVSKF [PET309 C-terminal 12 aa] | 0.783 ± 0.0088 | 0.794 ± 0.087
LKMDKLGNYILE [RIO2 C-terminal 12 aa] | 0.717 ± 0.027 | 0.65 ± 0.043
QEQQNLRQKQPN [YBL029C-A C-terminal 12 aa] | 0.704 ± 0.01 | 0.7093 ± 0.0059
RLKPRQIVPKRS [SLI15 C-terminal 12 aa] | 0.7194 ± 0.0028 | 0.724 ± 0.054
NHSSSGNKHDEL [MPD1 C-terminal 12 aa] | 0.657 ± 0.0067 | 0.686 ± 0.035
HIREDYLRQFGN [KTR5 C-terminal 12 aa] | 0.691 ± 0.027 | 0.616 ± 0.022
LTSIWKTILFFK [YEL076C C-terminal 12 aa] | 0.41 ± 0.014 | 0.468 ± 0.061
EQLADYLIGVQY [PFY1 C-terminal 12 aa] | 0.686 ± 0.014 | 0.6754 ± 0.0032
KIEHVDDETRTH [PEX13 C-terminal 12 aa] | 0.6991 ± 0.0032 | 0.6991 ± 0.0042
LSEEDLLDDESS [YPF1 C-terminal 12 aa] | 0.669 ± 0.042 | 0.698 ± 0.0078
LVKPKNWKKFRE [KRE2 C-terminal 12 aa] | 0.686 ± 0.017 | 0.733 ± 0.022
YFFSSDRAIFNA [YGL041C-B C-terminal 12 aa] | 0.731 ± 0.022 | 0.7029 ± 0.0011
LLLSAFLRNLVP [YAL016C-A C-terminal 12 aa] | 0.685 ± 0.026 | 0.375 ± 0.0073
TVFETLTLHSAN [JSN1 C-terminal 12 aa] | 0.725 ± 0.024 | 0.68218 ± 0.00033
IKRLDANTDFNI [MFB1 C-terminal 12 aa] | 0.678 ± 0.019 | 0.668 ± 0.024
FGTWEIVIRLLS [RIM2 C-terminal 12 aa] | 0.382 ± 0.0062 | 0.123 ± 0.018
LYEHGIKKFDDL [JIP5 C-terminal 12 aa] | 0.674 ± 0.029 | 0.721 ± 0.039
SHHPHKNGKISF [YKR011C C-terminal 12 aa] | 0.719 ± 0.028 | 0.69647 ± 0.00034
